Consider 20 molecules from US20260217864A1 (JANUX THERAPEUTICS, published 2026).

Changes are numbered by the printed parent chain. Where two headings read alike, the source gives them in different places. Bounds are passed on as bounds.

Common to all, as to assay: cell-based or functional assay
Assay [1] has as its target T1, six-transmembrane epithelial antigen of the prostate-1 (STEAP-1) (UniProt Q9UHE8 1-339, limits assumed).
Assay [2] has as its target T1, six-transmembrane epithelial antigen of …. The source holds these as a separate data set.
Assay [3] shares this target. This is another data set of the same source.
Assay [4] shares this target. This is another data set of the same source.
Assay [5] shares this target. This is another data set of the same source.
The target is the same in assay [6]. This is another data set of the same source.

T1 sequence (Q9UHE8 whole entry): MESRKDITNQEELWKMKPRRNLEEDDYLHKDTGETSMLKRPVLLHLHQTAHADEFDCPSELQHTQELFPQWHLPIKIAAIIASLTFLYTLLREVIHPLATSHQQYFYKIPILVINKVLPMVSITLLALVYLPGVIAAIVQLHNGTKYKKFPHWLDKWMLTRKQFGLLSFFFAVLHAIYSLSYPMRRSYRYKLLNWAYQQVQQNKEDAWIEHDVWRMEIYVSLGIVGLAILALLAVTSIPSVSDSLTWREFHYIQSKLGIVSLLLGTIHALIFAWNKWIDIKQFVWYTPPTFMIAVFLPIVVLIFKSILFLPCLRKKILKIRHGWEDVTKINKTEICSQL

B1: TCE-26 (bispecific antibody)
light: not shown
heavy: EVQLVESGGGLVQPGGSLRLSCAVSGYSITSDYAWNWVRQAPGKGLEWVGYISNSGSTSYNPSLKSRFTISRDTSKNTLYLQMNSLRAEDTAVYYCARERNYDYDDYYYAMDYWGQGTLVTVSSASTKGPSVFPLAPSSKSTSGGTAALGCLVKDYFPEPVTVSWNSGALTSGVHTFPAVLQSSGLYSLSSVVTVPSSSLGTQTYICNVNHKPSNTKVDKKVEPKSC
On to B1, for which, in assay [1], the “Cell line cytotoxicity EC50 (pM), 22RV1” value is 2100 pM; the “Cell line cytotoxicity EC50 (pM), A673” value turned out to be 45.8 pM; the “Cell line cytotoxicity EC50 (pM), C4-2B” value was determined as 1150 pM; the “Cell line cytotoxicity EC50 (pM), IM-95” value was 147 pM. The “Cell line cytotoxicity EC50 (pM), LNCaP” value in assay [1] turned out to be 585 pM. Besides, the “EC50/pM, LNCaP tumor cell killing” value in assay [2] stood at 585 pM.

B2: TCE-85 (bispecific antibody)
light: not shown
heavy: B1 heavy
In the case of B2, the “Cell line cytotoxicity EC50 (pM), LNCaP” value in assay [1] was determined as 360 pM. For the same molecule, in assay [2], the “EC50/pM, LNCaP tumor cell killing” value came to 361 pM.

B3: TCE-58 (bispecific antibody)
light: not shown
heavy: B1 heavy
With B3, in assay [3], the “Cell line cytotoxicity EC50 (pM), 22RV1” value was 332 pM and the “Cell line cytotoxicity EC50 (pM), LNCaP” value is 44.5 pM. Further, the “EC50/pM, LNCaP tumor cell killing” value in assay [2] came out at 45 pM.

B4: TCE-88 (bispecific antibody)
light: not shown
heavy: B1 heavy
On to B4, for which, in assay [1], the “Cell line cytotoxicity EC50 (pM), LNCaP” value is 183 pM. Further, in assay [2], the “EC50/pM, LNCaP tumor cell killing” value stood at 183 pM.

B5: TCE-87 (bispecific antibody)
light: not shown
heavy: B1 heavy
With B5, in assay [1], the “Cell line cytotoxicity EC50 (pM), LNCaP” value worked out at 235 pM. The “EC50/pM, LNCaP tumor cell killing” value in assay [2] came to 235 pM.

B6: TCE-81 (bispecific antibody)
light: not shown
heavy: B1 heavy
As for B6, the “Cell line cytotoxicity EC50 (pM), LNCaP” value in assay [1] stood at 239 pM. Further, in assay [2], the “EC50/pM, LNCaP tumor cell killing” value came to 239 pM.

B7: TCE-84 (bispecific antibody)
light: not shown
heavy: B1 heavy
Turning to B7, the “Cell line cytotoxicity EC50 (pM), LNCaP” value in assay [1] was determined as 192 pM. Moreover, the “EC50/pM, LNCaP tumor cell killing” value in assay [2] was determined as 192 pM.

B8: TCE-55 (bispecific antibody)
light: not shown
heavy: B1 heavy
Regarding B8, the “Cell line cytotoxicity EC50 (pM), LNCaP” value in assay [3] turned out to be 1310 pM. Further, in assay [2], the “EC50/pM, LNCaP tumor cell killing” value is 1310 pM.

B9: TCE-83 (bispecific antibody)
light: not shown
heavy: B1 heavy
Regarding B9, in assay [1], the “Cell line cytotoxicity EC50 (pM), LNCaP” value was determined as 209 pM. Besides, the “EC50/pM, LNCaP tumor cell killing” value in assay [2] amounted to 209 pM.

B10: TCE-80 (bispecific antibody)
light: not shown
heavy: B1 heavy
For the molecule B10, in assay [1], the “Cell line cytotoxicity EC50 (pM), LNCaP” value worked out at 260 pM. The “EC50/pM, LNCaP tumor cell killing” value in assay [2] came to 260 pM.

B11: TCE-82 (bispecific antibody)
light: not shown
heavy: B1 heavy
In the case of B11, in assay [1], the “Cell line cytotoxicity EC50 (pM), LNCaP” value came to 214 pM. The “EC50/pM, LNCaP tumor cell killing” value in assay [2] is 214 pM.

B12: TCE-86 (bispecific antibody)
light: not shown
heavy: B1 heavy
As for B12, the “Cell line cytotoxicity EC50 (pM), LNCaP” value in assay [1] amounted to 232 pM. Moreover, the “EC50/pM, LNCaP tumor cell killing” value in assay [2] is 233 pM.

B13: TCE-79 (bispecific antibody)
light: not shown
heavy: B1 heavy
As for B13, the “Cell line cytotoxicity EC50 (pM), LNCaP” value in assay [1] was found to be 163 pM. Besides, in assay [2], the “EC50/pM, LNCaP tumor cell killing” value worked out at 163 pM.

B14: TCE-89 (bispecific antibody)
light: not shown
heavy: B1 heavy
In the case of B14, the “Cell line cytotoxicity EC50 (pM), LNCaP” value in assay [1] is 123 pM. Besides, the “EC50/pM, LNCaP tumor cell killing” value in assay [2] was found to be 123 pM.

B15: TCE-4 (bispecific antibody)
light: not shown
heavy: B1 heavy with V24A, Y27F, T58I, T74N
Consider B15, for which the “IC50 (pM), VCaP tumor cell killing in the presence of CD8+ T cells” value in assay [4] is above 10000 pM. Besides, the “IC50 (pM), 22Rv1 tumor cell killing in the presence of CD8+ T cells” value in assay [5] was above 10000 pM. Besides, in assay [3], the “Cell line cytotoxicity EC50 (pM), 22RV1” value was above 10000 pM; the “Cell line cytotoxicity EC50 (pM), IM-95” value amounted to 648 pM; the “Cell line cytotoxicity EC50 (pM), LNCaP” value was found to be 2220 pM; the “Cell line cytotoxicity EC50 (pM), VCaP” value was above 10000 pM. The “IC50 (pM), LNCaP tumor cell killing in the presence of CD8+ T cells” value in assay [6] was determined as 1710 pM.

B16: TCE-69 (bispecific antibody)
light: DIQMTQSPSSLSASVGDRVTITCKSSQSLLYRSNQKNYLAWYQQKPGKAPKLLIYWASTRESGVPSRFSGSGSGTDFTLTISSLQPEDFATYYCQQYYNYPRTFGQGTKVEIKRTVAAPSVFIFPPSDRKLKSGTASVVCLLNNFYPREAKVQWKVDNALQSGNSQESVTEQDSKDSTYSLSSTLTLSKADYEKHKVYACEVTHQGLSSPVTKSFNRGEC
chain: not shown
heavy: not shown
In the case of B16, in assay [3], the “Cell line cytotoxicity EC50 (pM), 22RV1” value came out at 359 pM; the “Cell line cytotoxicity EC50 (pM), IM-95” value came to 11.2 pM; the “Cell line cytotoxicity EC50 (pM), LNCaP” value was determined as 89.1 pM.

B17: TCE-90 (bispecific antibody)
light: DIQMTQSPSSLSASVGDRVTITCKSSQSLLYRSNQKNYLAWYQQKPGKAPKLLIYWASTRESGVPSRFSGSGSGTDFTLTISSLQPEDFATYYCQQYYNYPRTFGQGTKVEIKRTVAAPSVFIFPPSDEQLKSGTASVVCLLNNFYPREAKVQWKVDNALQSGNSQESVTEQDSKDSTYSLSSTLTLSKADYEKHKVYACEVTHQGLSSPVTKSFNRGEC
heavy 1: EVQLVESGGGLVQPGGSLRLSCAVSGYSITSDYAWNWVRQAPGKGLEWVGYISNSGSTSYNPSLKSRFTISRDTSKNTLYLQMNSLRAEDTAVYYCARERNYDYDDYYYAMDYWGQGTLVTVSSASTKGPSVFPLAPSSKSTSGGTAALGCLVKDYFPEPVTVSWNSGALTSGVHTFPAVLQSSGLYSLSSVVTVPSSSLGTQTYICNVNHKPSNTKVDKKVEPKSCDKTHTCPPCPAPELLGG
chain: not shown
heavy 2: not shown
B17: in assay [1], the “Cell line cytotoxicity EC50 (pM), 22RV1” value came out at 171 pM; the “Cell line cytotoxicity EC50 (pM), A673” value was found to be 17.3 pM; the “Cell line cytotoxicity EC50 (pM), IM-95” value came out at 11.6 pM; the “Cell line cytotoxicity EC50 (pM), LNCaP” value was 68.5 pM.

B18: TCE-76 (bispecific antibody)
light: not shown
heavy: QVQLVQSGAEVKKPGASVKVSCKASGYTFSTYWIEWVRQAPGQRLEWMGEILPGSGQTDFNEKFQGRVTFTADTSSDTAYMELSSLRSEDTAVYYCTRWGYYGTRGYFNVWGQGTLVTVSSASTKGPSVFPLAPSSKSTSGGTAALGCLVKDYFPEPVTVSWNSGALTSGVHTFPAVLQSSGLYSLSSVVTVPSSSLGTQTYICNVNHKPSNTKVDKKVEPKSC
On to B18, for which the “Cell line cytotoxicity EC50 (pM), LNCaP” value in assay [3] stood at 7.9 pM.

B19: TCE-93 (bispecific antibody)
light: EIVLTQSPATLSLSPGERATLSCRASSSVSYMHWFQQKPGQAPRLLIYSTSNLASGIPARFSGSGSGTDYTLTISSLEPEDFAVYYCQQRRSFPYTFGQGTKLEIKRTVAAPSVFIFPPSDEQLKSGTASVVCLLNNFYPREAKVQWKVDNALQSGNSQESVTEQDSKDSTYSLSSTLTLSKADYEKHKVYACEVTHQGLSSPVTKSFNRGEC
heavy 1: QVQLVQSGAEVKKPGASVKVSCKASGYTFSTYWIEWVRQAPGQRLEWMGEILPGSGQTDFNEKFQGRVTFTADTSSDTAYMELSSLRSEDTAVYYCTRWGYYGTRGYFNVWGQGTLVTVSSASTKGPSVFPLAPSSKSTSGGTAALGCLVKDYFPEPVTVSWNSGALTSGVHTFPAVLQSSGLYSLSSVVTVPSSSLGTQTYICNVNHKPSDTKVDKKVEPKSCDKTHTCPPCPAPPVAGPSVFLFPPKPKDTLMISRTPEVTCVVVDVKHEDPEVKFNWYVDGVEVHNAKTKPCEEEYGSTYRCVSVLTVLHQDWLNGKEYKCKVSNKALPAPIEKTISKAKGQPREPQVYTLPPSREEMTKNQVSLTCDVSGFYPSDIAVEWESDGQPENNYKTTPPVLDSDGSFFLYSKLTVDKSRWEQGDVFSCSVMHEALHNHYTQKSLSLSPGK
heavy 2: QVQLVQSGAEVKKPGASVKVSCKASGYTFSTYWIEWVRQAPGQRLEWMGEILPGSGQTDFNEKFQGRVTFTADTSSDTAYMELSSLRSEDTAVYYCTRWGYYGTRGYFNVWGQGTLVTVSSASTKGPSVFPLAPSSKSTSGGTAALGCLVKDYFPEPVTVSWNSGALTSGVHTFPAVLQSSGLYSLSSVVTVPSSSLGTQTYICNVNHKPSNTKVDKKVEPKSCGGGGSGGGGSEVQLVESGGGLVQPGGSLRLSCAASGFTFSTYAMNWVRQAPGKGLEWVGRIRSKYNNYATYYADSVKGRFTISRDDSKNTLYLQMNSLRAEDTAVYYCVRHGNFGDSYVSWFAYWGQGTLVTVSSGKPGSGKPGSGKPGSGKPGSQAVVTQEPSLTVSPGGTVTLTCGSSTGAVTTSNYANWVQQKPGKSPRGLIGGTNKRAPGVPARFSGSLLGGKAALTISGAQPEDEADYYCALWYSNHWVFGGGTKLTVLGGGGSGGGGSKTHTCPPCPAPPVAGPSVFLFPPKPKDTLMISRTPEVTCVVVDVKHEDPEVKFNWYVDGVEVHNAKTKPCEEQYGSTYRCVSVLTVLHQDWLNGKEYKCKVSNKALPAPIEKTISKAKGQPREPQVYTLPPSREQMTKNQVKLTCLVKGFYPSDIAVEWESNGQPENNYKTTPPVLDSDGSFFLYSKLTVDKSRWQQGNVFSCSVMHEALHNHYTQKSLSLSPGK
B19: in assay [1], the “Cell line cytotoxicity EC50 (pM), 22RV1” value was found to be 23.2 pM; the “Cell line cytotoxicity EC50 (pM), A673” value is 0.9 pM; the “Cell line cytotoxicity EC50 (pM), C4-2B” value amounted to 0.4 pM; the “Cell line cytotoxicity EC50 (pM), IM-95” value came to 3.6 pM. In addition, in assay [1], the “Cell line cytotoxicity EC50 (pM), LNCaP” value was 0.2 pM and the “Cell line cytotoxicity EC50 (pM), VCaP” value was determined as 1.2 pM.

B20: TCE-75 (bispecific antibody)
light: B19 light
heavy: not shown
For B20, the “Cell line cytotoxicity EC50 (pM), LNCaP” value in assay [3] was found to be 5.2 pM.
